In this assay the target is SARS-CoV-2 spike protein receptor binding domain (RBD) (SARS-CoV-2, UniProt P0DTC2). Briefly: ELISA. (An ELISA detects its analyte on a solid surface through an enzyme-linked reagent.)

B1: bovine ACE2-Fc (bovine angiotensin I converting enzyme 2 fused to human IgG1 Fc) (Fc fusion)
chain: QSTTEEQAKTFLEKFNHEAEDLSYQSSLASWNYNTNITDENVQKMNEARAKWSAFYEEQSRMAKTYSLEEIQNLTLKRQLKALQHSGTSALSAEKSKRLNTILNKMSTIYSTGKVLDPNTQECLALEPGLDDIMENSRDYNRRLWAWEGWRAEVGKQLRPLYEEYVVLENEMARANNYEDYGDYWRGDYEVTGAGDYDYSRDQLMKDVERTFAEIKPLYEQLHAYVRAKLMHTYPSYISPTGCLPAHLLGDMWGRFWTNLYSLTVPFEHKPSIDVTEKMENQSWDAERIFKEAEKFFVSISLPYMTQGFWDNSMLTEPGDGRKVVCHPTAWDLGKGDFRIKMCTKVTMDDFLTAHHEMGHIQYDMAYAAQPYLLRNGANEGFHEAVGEIMSLSAATPHYLKALGLLAPDFHEDNETEINFLLKQALTIVGTLPFTYMLEKWRWMVFKGEIPKQQWMEKWWEMKREIVGVVEPLPHDETYCDPACLFHVAEDYSFIRYYTRTIYQFQFHEALCKTAKHEGALFKCDISNSTEAGQRLLQMLRLGKSEPWTLALENIVGIKTMDVKPLLNYFEPLFTWLKEQNRNSFVGWSTEWTPYSDQSIKVRISLKSALGENAYEWNDNEMYLFQSSVAYAMRKYFSEARNETVLFGEDNVWVSDKKPRISFKFFVTSPNNVSDIIPRTEVENAIRLSRDRINDVFQLDDNSLEFLGIQPTLGPPYEPPVT
As to B1, the EC50 stood at 1.3 nM.

Usually EC50 stands for the concentration at which the effect is half-maximal. A lower EC50 goes with a more potent agent.
